Data: patent EP2620453B1

How the values were obtained:
[1] = molecular target: Stx1 (type-I Shiga toxin, recombinant holotoxin) (EHEC O157:H7) (UniProt P08026); assay: ELISA, plates coated with Stx1, serum titer
[2] = molecular target: Stx2 (type-II Shiga toxin, recombinant holotoxin) (EHEC O157:H7) (UniProt P09386); assay: ELISA, plates coated with Stx2, serum titer

Question: Which results are given for “serum of the placebo control PBS group (BALB/c mice) (antibody)”?
Answer: titer of serum IgA and IgG [1]: < 2; titer of serum IgA and IgG [2]: < 2
